Laboratory results: paper PMC6850750 (Biochemistry, 2019)

Molecular target: the molecule itself
Assay: SEC

B1: YdjI (enzyme, E. coli K12)
chain: MLADIRYWENDATNKHYAIAHFNVWNAEMLMGVIDAAEEAKSPVIISFGTGFVGNTSFEDFSHMMVSMAQKATVPVITHWDHGRSMEIIHNAWTHGMNSLMRDASAFDFEENIRLTKEAVDFFHPLGIPVEAELGHVGNETVYEEALAGYHYTDPDQAAEFVERTGCDSLAVAIGNQHGVYTSEPQLNFEVVKRVRDAVSVPLVLHGASGISDADIKTAISLGIAKINIHTELCQAAMVAVKENQDQPFLHLEREVRKAVKERALEKIKLFGSDGKAE
modifications: Cys234 oxidized to cysteic acid (seen in the electron density of each subunit)
- stoichiometry N: 4
